assay: soluble fraction after stress (log2 fold change); higher = more stays soluble; pooled small domains, quantitative proteomics; details: stress: 50 degC
In short: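 Each library was heated to 50°C as a stress step. The libraries, made up of small protein domains, were pooled and analysed at high throughput by quantitative proteomics. The reported value is the base-two logarithm of the fold change in each protein's soluble amount after stress, taken as a measure of aggregation propensity. The higher the value, the more protein stays in solution.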

Sequence	soluble fraction (log2)
HMGLNPSILVKLGNANIKTIDNLADLASDELKEILEDISITSKEADEIIMRARSSWFEEDDKKEDNI	0.0789
HMKLIRLGKAAGELNVGMSTLAEFLQSKGHSVDPNPNTKLTPEQYALLRMEFAADQTLKKLTKQP	0.198
HMGISQAQAMQALRKLIEEEDKHTPLSDQTLMERLKAAGIPLARRTIAKYRESLGIPSAAQRK	-0.109
HMAMTQNVDLAGRIVFNEKKEEVFNFGKHKGRSVAEVFEKEPSYYDWMLKGDFPAETKQVLTALRLRGLS	-0.0725
HMRKKTYEIITDDLRRMIEAGLIRPGEKLGAIDQLAAKYRVGRSTVREALSHLKALGLVESRQGGGTYVTK	0.156
HMGDPSSERNIQKSIFILIGEKALSVQDISRSLGMPNDIIDKALISGVERNLWLSSDKGEYYL	-1.1
HMKPPTIELSYSEFIELVERGKVSKVIFSSDNYTLKGETVNGENFETVRPPFLEDNLSEILTIHKVPVSSE	-0.208
HMIVKQPDIRKQELLDIGVRLYFEAGEKGVSIQQVVKQAGVATGLFYYYFSSKDAFLDEALNDYID	0.102
HMAVQAESDIIKRAALLRNLGNTSMQLKNIDQAIDFYKQGIKLHPEDAELKYNLSQALRQKSQSNN	0.0399
HMDNEIMYPIQINGKVRAELFVSTERAMDKQYVLEQAKANEKIQGYLEGNRLVKEIFVPKRIVNLVIAP	0.197
HMQTQYIVDTKTTLLVRTGPGKSNSQFGRLKNGETINVYAIKNGWAEISYNGKTGYVSEQYIKLA	-3.12
HMGSLVKLQSAAELHQAGRSAEAVPILLEVLATNPRLVDGWEILANALEKLGRLDEALAALKKTVALSPPG	-0.694
HMQNAMQKELIDAFQKAYPDLDITKIELVYGTYYEVEAMNSTTEFTYRYDQNSKTFILAEQDNADP	-0.202
HMQLTVAVLIKNISKGQVISQGFLGFEARPERQIRGAYTNISEVLGRKAKSNIAVGTILKARHLDT	-2.94
HMTPNRDDEHLQSLRDYYASNRRIPSLQRIAALLGFSSRSAAVKLMGRLADEGFVERTVDDDAWIPGSRFF	-0.808
HMTNQEFNEVFKLLLAAYPNTKDKESVATIYFLTIANELTKKEFAEAVVKILKTRKSGFIPQPAEILEVAK	-0.67
HMGEKTLSEKVYDRLKELIMDGELERGTKITETSIAKMFDVSPTPVREAFRKLASDGLIEVASWKGVIVKG	-0.0886
HMRILGIDPGYAITGYSIIDYVGNKFKLIDSGAVLTKAGVSFPLRLTKIYDDLSMIIDEYKPDA	-0.207
HMYPTPAAANRHFLDKWGHQEAYLGKVLNSRSRASEILNGKRPLSLSDLRTLRDNLGIPVDLLL	-0.489
HMTGQEGLIGAHGVALTRLSNEEGEVKVQGEIWQARSDQEVAKGASIEVVHVDGLVLTVRPQH	-0.0984
HMDYGSISFINWSIEVLSVIKTRLDRGDKIIDEVSGEKYTASSFEKFVRKNFSSYIFSQVYAEDHKK	-2.55
HMKTFQSYQTTSMSNVNLRKRANGTSTILKRIKVGDTVTVVGKSGNYYQIQFDGKEGYALIKYIDGTDSGA	-0.247
HMFIEPPSLEELERRLRGRGTETDDVVDMRMRTALVELSQKMEYDYRLVNDDLDEATRQLVAYVNEIAEQ	0.0568
HMAQLSDMLTYLRKRKGLSQQELANTLKISRSAIGMYETGKREPDLETLEVFADFYNVDMNTLTGKA	-0.143
HMGTTMLEVPNFVGEVFKEIDPEKYPNLRLVDSDYTYSNEYEAGKVISQDPVARTQVAEGSTVKLVIS	0.133
HMINIFKVKKAMEEIFASEWEDSPYTDQKISQILWSRGFSVSTGLVEKYRGQMGVPDANSRLNLN	-2.38
HMVTVQEGETLSAIAARSGVSVKDLVRANEIRNPDSIQEGQVLFVP	0.0612
HMNDTPPELRAALDLLGLKWPLASVELRARYKDLAKQHHPDATGGDKQAEERLKDINRAYSLLKHRLAKQ	-0.07

Sequence	soluble fraction (log2)
HMNNDFVERLRKLFGHASMAEIARRIDVPHATIRNYFQGRLPAPEVLIKLARETGVSLNWLLTGEGKMFA	-0.253
HMSSSMDAIAEIIRSIPRGDHLTAPEVYELAKQRGLKLSLSTVYRTLNKLKVVGDVITVSGDRGLRYESV	-0.181
HMDRPARDEAQSWLADVLADGPVPTAEIREEAEAAGLAWRTIQRARIALSVEPIRGDGRNAWLWQLPG	-1.42
HMTATDRQLQLIAYTAARLMAEQGIADFNAAKRKAIQTLGLPNNAKLPGNADVEAQLRAYQRIF	-0.133
HMFLPGETFDVKIVKIGEGENQGVGYLDDGTMIVIENGRDHLNELARVIVTRVLQNSAGQMIFSDYEE	-2.27
HMGLDMSLEREQHRALREASQWYARLADEQVDSDAERAWRHWVAADEANQRAWQYIEAVSQRFDG	-0.315
HMKGKDLQDAVVTVVGGAENWNAIRAWAQASASDSEKREINAAFQSGKLMATMMAERLALAYQQSG	-0.0897
HMVKNVVIPDVSNKAPVDASNQLTDLGFEVVTEYKYIASDTIEEGKVVKTSPEIGSKRKYGQKITLYISSG	-0.56
HMDAPIIRLLNSLVQRAVTTTASDIHIEPFEGETKVRMRIDGVIIDYVTLQRALHQPLIARIKIMSNLD	-0.202
HMSGFFVYPNPAKSNIIHFPNKKSFYIYDTSGRLLIEGKGKDFIDVSTLDRGVYLLKTFENDIVKIII	-1.25
HMGAEIRDKVRAALAGLNPRAAEIFVMRYFDGYGNREIARLLNTSWSTIAVTLHRTRAKLQKELK	-0.101
HMPGVTTQLHRLNGTEETYIIKRGDGVLEIDGEKSELQLGDAIIIPAGASQKISNIGDEDLE	-0.346
HMTTIHVDPEKISKIIGPGGKTIKKIVEETGAKIDIEEDGRVYIAAVNSEEAAKAIDMINGI	0.257
HMLPTVSITGHIFIRSGSPLNRIFVGEKIYHVGDHIDRDWVIESIGIDTLTIRSGTLSTQLPL	-2.87
HMGTPEQVVVSSVLKETNEIVLKWPADGFMAKYKMDNLNLNFEPVHGQGVMGYFIGSRLIKLELV	-0.251
HMGGKWKPIILYYININSVARYSELKRFIPSINERMLTRQLRELEEDNLIERKVYPIVPPKVEYRLTEYGK	0.0177
HMDYHTIQTGDKGDEVLRLQQALAEYGYYEGDLDGRFGQQTRRAVERFQYSHGLTADGIAGRNTLSVLYD	-0.101
HMGDRRSVFEQSVLDAIKSLVKQGELATTKAISDHIGTNYQGNVSRAITALLADNKIKKLPKEGVLQPYEA	0.0535
HMANPEFAGYINGKPYFGPTHQHRGVKMLGATHTRNPHPLVWDSIAESLANYDSRFRWSGGQIL	-0.429
HMSGTMYATAEVNVRSTYSSDGTIYGTLSKGTAVEITGTTDNGWVRVKYNGTTAYVYADYLSWKAP	-0.671
HMTAVPADVETVTGFTALDRAGLDTLLARLGLAMDLEDLSFLQAYFRDTERRDPTLTEIRVVDTYWSDH	-1.38
HMDLKTNSQLINELEKKIKRPFDREIKNYLNKNLSTDRMISNNEIDKIILFYSGNNEIPNIEKISLILNDN	-0.112
HMDDEAVQIMTLHISKGLEFDVVFALGLVSRTPESKEIEELEAEKQRQLYVAMTRAEKWLIVAA	-0.12
HMGKTKFTEMSALELKAYAELNNNSMHWVYRMLYIGGGDVGFRKGMKELGYSGKFIWMTLERLKKS	-1.32
HMKQLIGYSVIDIKMGKLGEISFVNSKTAQALIHVSKDGKGFYFPWHKQFVKNIDAEKGIMEVEIPKEFLD	-0.237
HMAAQDLIVKTDASQVEARVLEISPDAVRYKRFSNPDGPTYVLPVAEIRYIRYANGEVEYYA	-0.0166
HMQGEVPYSQFLTEVDRGDVQSVVIEGNNISGFYKNSSTAFTVVAPDDPKLVERLMEQGVEVKARPV	0.0205

— the domain aggregation screens of Martell et al. (2025)
